Measurements published in the RNAGym collection of RNA variant scans (doi:10.7554/elife.90254).

B1: LINE1-mini (parent)
chain: GGCAGAGCUCAACACAGCGUGGCAAAGUGGCUGUGGCUAGACUGCC

Variants of: B1
Assay: self-cleavage, relative activity (ratio to wild type); higher = more cleavage; in vitro, sequencing; the parent is a self-cleaving ribozyme

| Variant | self-cleavage |
| --- | --- |
| G33C C45U | 0.05 |
| C23A U32G | 0.22 |
| A16G G29U | 0.77 |
| G2C U28A | 0.23 |
| G7C A26C | 0.6 |
| A12U A41G | 0.09 |
| A25G G35C | 0.04 |
| A4U U34C | 0.08 |
| A16U C42U | 0.09 |
| C3G A6C | 0.27 |
| G5C A11U | 0.03 |
| C3U C23U | 0.38 |
| A4G C37A | 0.06 |
| U20G A24U | 0.54 |
| C10U C46A | 0.33 |
| G35U G44U | 0.11 |
| U32A A39G | 0.05 |
| U32A A39C | 0.06 |
| A4C A14U | 0.22 |
| C31A C45A | 0.05 |
| G5A U32G | 0.04 |
| A39G C45G | 0.09 |
| A6U G30A | 1.65 |
| G7A U28C | 0.11 |

| Variant | self-cleavage |
| --- | --- |
| G7A G36A | 0.43 |
| U32A U34C | 0.15 |
| A4G G29U | 0.63 |
| C3G C31A | 0.15 |
| G22A A39C | 0.09 |
| G22A A39G | 0.17 |
| A6C U9C | 0.03 |
| G7C C18A | 0.12 |
| C23U U32G | 0.36 |
| C3G U43C | 0.14 |
| U9G C13A | 0.19 |
| G17A G36C | 0.05 |
| U32A A41G | 0.04 |
| G21C G22U | 0.46 |
| C15U U28G | 0.31 |
| A12C G40U | 0.03 |
| A6C A24U | 1.07 |
| G7C G29U | 0.13 |
| A24G C42U | 0.41 |
| U34G C46A | 0.18 |
| A11C A24C | 0.04 |
| G2A C15G | 0.05 |
| A4U A14U | 0.1 |
| G7A G40U | 0.27 |

| Variant | self-cleavage |
| --- | --- |
| G2A A16G | 0.26 |
| C8G A11C | 0.02 |
| A4C C8U | 0.22 |
| A25U G44A | 0.28 |
| A14U G40U | 0.11 |
| C23A A41G | 0.43 |
| G2U G7U | 0.05 |
| A11G G35U | 0.03 |
| A11G G35C | 0.02 |
| A4G G21U | 0.68 |
| C18A C45U | 0.58 |
| A12C G29C | 0.01 |
| A16G G35U | 0.11 |
| G2U G29A | 0.09 |
| C23U U28G | 0.6 |
| A12C C31G | 0.01 |
| U9A U20G | 0.16 |
| A6G C31G | 0.05 |
| G29A G33C | 0.06 |
| A14G G36U | 0.12 |
| C15G G35A | 0.04 |
| G2U A4U | 0.08 |
| C15U A25C | 1 |
| A24C G35U | 0.05 |

| Variant | self-cleavage |
| --- | --- |
| A4U G33A | 0.07 |
| A11U G21U | 0.1 |
| C3G G19C | 0.16 |
| U9C C31U | 0.03 |
| G7U G35U | 0.1 |
| U32A C37A | 0.04 |
| C23A U34A | 0.24 |
| G19A A24G | 1.45 |
| A14C G30A | 0.21 |
| A14C G30U | 0.07 |
| C8U C31A | 0.21 |
| C8G G33U | 0.03 |
| G5C U28C | 0.05 |
| A14C A16U | 0.12 |
| A14C A41U | 0.06 |
| A6U G36A | 0.26 |
| G21C U38C | 0.48 |
| A41G G44A | 0.08 |
| A4C C45G | 0.17 |
| U34G G36U | 0.11 |
| G36A U43A | 0.07 |
| G1U C13U | 0.07 |
| G33U G44C | 0.06 |
| G1U A6U | 0.22 |

| Variant | self-cleavage |
| --- | --- |
| G29C U32A | 0.31 |
| U20A G36A | 0.26 |
| U20A G36U | 0.05 |
| U9G G35C | 0.03 |
| G5A C45G | 0.14 |
| U20A G30C | 0.68 |
| G27A G30C | 1.53 |
| G19C A24U | 0.6 |
| A12C G30C | 0.04 |
| C15U A24C | 0.25 |
| A11G G44A | 0.03 |
| C18G U28G | 0.22 |
| G21A G27A | 1.01 |
| G1U G21U | 0.41 |
| A16G A39U | 0.14 |
| A4G G27C | 0.24 |
| G1C G30C | 0.04 |
| A11U G30C | 0.13 |
| A26U G35U | 0.16 |
| G7C G40U | 0.26 |
| C13A G40U | 0.09 |
| G2U U34G | 0.03 |
| A25G G33C | 0.04 |
| G17U C45U | 0.18 |

| Variant | self-cleavage |
| --- | --- |
| G2U C46G | 0.1 |
| C13A A14C | 0.08 |
| U32A C46A | 0.08 |
| C15A A26G | 0.06 |
| U32A U38A | 0.09 |
| U32A U38C | 0.07 |
| A24C A41G | 0.25 |
| A14C G33C | 0.03 |
| A25C A41C | 0.04 |
| C15A U38G | 0.07 |
| G7A A11C | 0.03 |
| G22U U34G | 0.26 |
| C8A G21C | 0.21 |
| A41G U43C | 0.04 |
| A26C G33C | 0.07 |
| G36A C45U | 0.8 |
| A4C U38C | 0.12 |
| A14G A25G | 0.32 |
| A14G A25U | 0.53 |
| A4C A16C | 0.04 |
| A4C A16G | 0.09 |
| G17A G19C | 1.09 |
| C3U G27A | 0.36 |
| G5C C46G | 0.11 |

| Variant | self-cleavage |
| --- | --- |
| G5C C46A | 0.09 |
| G17C U28G | 1.62 |
| A6G G40A | 0.1 |
| G21U C23G | 0.9 |
| G22A G30A | 1.24 |
| G5U C37A | 0.06 |
| A39C C45U | 0.24 |
| G40U C42G | 0.08 |
| U9A A39U | 0.1 |
| A24C A25U | 1.01 |
| C13U | 0.17 |
| G35A C37A | 0.14 |
| G1C C42U | 0.04 |
| C3G G30C | 0.32 |
| A6G U9G | 0.17 |
| G1A G30U | 1.59 |
| C18U U43G | 0 |
| U34A G36A | 0.09 |
| A11G C46G | 0.02 |
| U34C G35A | 0.05 |
| C8G C45U | 0.06 |
| C8G C45A | 0.08 |
| C3U C42G | 0.07 |
